Like-named read-outs stand apart in the source and are kept apart here.

Assay in all cases: SEC
Test [1] has as its target C. difficile replicative helicase CD3657, purified non-tagged (Clostridium difficile 630).
The target is the same in test [2]. The source holds these as a separate data set.
Test [3] has as its target C. difficile putative helicase loader ATPase CD3654, purified non-tagged (Clostridium difficile 630).
Test [4] has as its target C. difficile replicative helicase CD3657, purified non-tagged (Clostridium difficile 630). This is another data set of the same source.

Regarding “C. difficile replicative helicase CD3657, purified non-tagged (enzyme)”, the stoichiometry N in test [1], in test [2] and in test [4] was 6 throughout. Further, in test [3], the stoichiometry N (CD3657 per CD3654 (6:6)) amounted to 1.

The values are drawn from paper doi:10.1101/071829.
